Our source for the koff values is publication doi:10.1101/2021.08.02.454546 (2021).

The test concerns the target CV3–25 IgG. Kind of test: SPR.

Chain of CV3–25 IgG (VH, as listed by the source, chain 1 of 2): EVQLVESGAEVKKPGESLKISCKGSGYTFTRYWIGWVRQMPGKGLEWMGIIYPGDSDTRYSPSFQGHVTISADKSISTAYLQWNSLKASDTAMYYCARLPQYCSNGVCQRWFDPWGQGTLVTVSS
Chain of CV3–25 IgG (VL, as listed by the source, chain 2 of 2): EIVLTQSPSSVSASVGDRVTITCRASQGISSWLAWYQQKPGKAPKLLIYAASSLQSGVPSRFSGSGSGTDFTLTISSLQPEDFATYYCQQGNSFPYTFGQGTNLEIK

For the molecule DKYFKNHTSPDVDLG [SARS-CoV-2 S2 peptide #289 (1153-DKYFKNHTSPDVDLG-1167)], the koff turned out to be 0.0319 s⁻¹. On to DKYFKNHTSPD [shorter version of peptide #289 (1153-DKYFKNHTSPD-1163)], for which the off-rate constant (koff) was 0.0761 s⁻¹.

The koff is the first-order rate constant of dissociation. A high value points to a short-lived complex.
